In PMC5444381:
Like-named read-outs stand apart in the source and are kept apart here.

Columns and labels:
[1] = biological target: BaL.01 Env trimeric spikes on pseudotyped viruses (HIV-1 BaL.01)
[2] = biological target: BaL.01 Env trimeric spikes on pseudotyped viruses (HIV-1 BaL.01); remark: listed apart in the source
[3] = biological target: BaL.01 Env trimeric spikes on pseudotyped viruses (HIV-1 BaL.01); remark: listed apart in the source

Row | Substance | EC50 of virolysis (p24 release from HIV-1 BaL.01 pseudovirus, sandwich ELISA) [1] [nM] | IC50 of inhibition of HIV-1 BaL.01 pseudovirus infection of HOS.T4.R5 cells [2] [nM] | IC50 of inhibition of HIV-1 BaL.01 pseudovirus infection of HOS.T4.R5 cells [3] [nM] | EC50 of virolysis (p24 release from HIV-1 BaL.01 pseudovirus, sandwich ELISA) [3] [nM]
1 | DAVEI-L4(ΔCRAC)W15A | 46.8 | 0.4 |  | 
2 | DAVEI-L4(ΔCRAC)-W3,7,9,15A | 122 | 0.78 |  | 
3 | DAVEI-L4(ΔCRAC)-W7,9,15A | 43.1 | 0.36 |  | 
4 | DAVEI-L4(ΔMPER) |  |  | 1.4 | 
5 | DAVEI-L4(ΔCRAC)W9,15A | 49.7 | 0.45 |  | 
6 | DAVEI-L4(ΔCRAC) |  |  | 1.1 | 28.3
